Residue numbers refer to the chain shown, from its start. Names and notes keep the numbering of the source. Values joined by “and” are separate entries in the source; they are usually repeats but may differ in a detail not shown here. Equal values may be shown once.
T1: Lphn3^Lec–Olf DDD mutant (D397N+D399T, artificial N-linked glycosylation site at position 397) (mouse, UniProt Q80TS3-3 92-463, D397N | D399T, artificial N-linked glycan at position 397)
T1 construct: Latrophilin3, mouse, residues 92-463 (Lec and Olf domains) with two substitutions in the DDD loop
T1 sequence (looked up): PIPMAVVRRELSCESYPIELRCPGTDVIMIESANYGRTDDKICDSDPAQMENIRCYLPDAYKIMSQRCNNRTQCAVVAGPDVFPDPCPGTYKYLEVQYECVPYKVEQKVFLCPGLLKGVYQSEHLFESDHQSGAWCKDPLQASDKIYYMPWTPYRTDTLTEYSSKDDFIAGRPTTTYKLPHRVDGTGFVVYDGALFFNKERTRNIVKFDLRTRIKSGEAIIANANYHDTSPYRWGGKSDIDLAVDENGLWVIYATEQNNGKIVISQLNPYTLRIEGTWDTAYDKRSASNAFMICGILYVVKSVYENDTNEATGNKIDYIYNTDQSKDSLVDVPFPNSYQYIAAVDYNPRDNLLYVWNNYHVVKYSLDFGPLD

T2: FLRT2^LRR+Lphn3^Lec–Olf DDD mutant (mouse, UniProt Q8BLU0 35-362; Q80TS3-3 92-463, D397N | D399T, artificial N-linked glycan at position 397)
T2 construct: FLRT2, mouse, residues 35-362 (leucine-rich repeat domain); as m2; Latrophilin3, mouse, residues 92-463 with D397N+D399T; as m9
T2 sequence (looked up) 1: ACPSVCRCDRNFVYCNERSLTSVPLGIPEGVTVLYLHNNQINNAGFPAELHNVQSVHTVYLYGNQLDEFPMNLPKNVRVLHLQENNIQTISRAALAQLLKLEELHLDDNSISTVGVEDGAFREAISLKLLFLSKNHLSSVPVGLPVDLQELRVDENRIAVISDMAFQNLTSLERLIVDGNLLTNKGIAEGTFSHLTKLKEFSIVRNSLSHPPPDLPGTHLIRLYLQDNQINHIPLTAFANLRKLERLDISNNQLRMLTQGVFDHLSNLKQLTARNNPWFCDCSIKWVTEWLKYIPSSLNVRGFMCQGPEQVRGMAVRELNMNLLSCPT
T2 sequence (looked up) 2: T1 sequence (looked up)

T3: FLRT2^LRR+Lphn3^Lec–Olf (mixed in a 1:2 molar ratio) (mouse, UniProt Q8BLU0 35-362; Q80TS3-3 92-463)
T3 construct: FLRT2, mouse, residues 35-362 (leucine-rich repeat domain); as m2; Latrophilin3, mouse, residues 92-463 (Lec and Olf domains); as m1; Analyte mixture of the SPR experiment; by SEC-MALS the two proteins alone form a 1:1 complex; also called FLRT2^LRR+wild-type Lphn3^Lec–Olf
T3 sequence (looked up) 1: T2 sequence (looked up) 1
T3 sequence (looked up) 2: T1 sequence (looked up) with N306D, T308D

B1: rat Unc5D two Ig and TSP1 domains (Unc5D^IgIgTSP) (domain or fragment)
chain: not shown
notes: signal peptide in the construct; Unc5D, rat, residues 1-307 (Ig1, Ig2 and TSP1 domains); Deglycosylated before crystallisation
B2: mouse FLRT2 LRR domain (FLRT2^LRR) (domain or fragment, UniProt Q8BLU0 35-362, looked up)
chain: T2 sequence (looked up) 1
notes: FLRT2, mouse, residues 35-362 (leucine-rich repeat domain); pHLSec vector family; treated with endoglycosidase F1 before crystallisation
B3: mouse Latrophilin3 Lec+Olf (Lphn3^Lec–Olf) (domain or fragment, UniProt Q80TS3-3 92-463, looked up)
chain: T1 sequence (looked up) with N306D, T308D
notes: Latrophilin3 (Lphn3, ADGRL3), mouse, residues 92-463 (lectin and olfactomedin-like domains); pHLSec vector family; treated with endoglycosidase F1 before crystallisation; Two copies (Lphn3A, Lphn3B) stand in each 1:1:2 tetramer; also called Lphn3A^Lec–Olf; Lphn3B^Lec–Olf
B4: Lphn3^Lec–Olf DDD charge-reversal mutant (D397R, D398R and D399R) (domain or fragment, mouse, UniProt Q80TS3-3 92-463, looked up)
chain: T1 sequence (looked up) with N306R, D307R, T308R
notes: Latrophilin3, mouse, residues 92-463 (Lec and Olf domains) with three substitutions in the DDD loop
B5: rat Unc5D ectodomain (Unc5D^ecto), biotinylated at a C-terminal Avitag (domain or fragment)
chain: not shown
modifications: biotin on the C-terminal Avitag (enzymatic)
notes: signal peptide in the construct; Unc5D, rat, residues 1-382 (all extracellular domains); The form held on the streptavidin-coated CM5 chip in SPR; not shown: Avitag, C-terminal, kept
B6: rat Unc5D Ig domain 1 (Unc5D^Ig) (domain or fragment)
chain: not shown
notes: signal peptide in the construct; Unc5D, rat, residues 1-161 (Ig domain 1); Treated with endoglycosidase F1 before crystallisation

Experiments:
[1] = molecular target: B2; test: crystal structure; Lphn3^Lec–Olf, FLRT2^LRR and Unc5D^IgIgTsp deglycosylated, mixed 2:1:1; crystals at 18 °C; 3.4 Å (PDB 5ftt); details: both partners purified
[2] = molecular target: B3; test: crystal structure; Lphn3^Lec–Olf, FLRT2^LRR and Unc5D^Ig deglycosylated, mixed 1:1:1, SEC; crystals at 18 °C, 0.1 M sodium cacodylate pH 6.5; 6 Å (PDB 5ftu); details: both partners purified
[3] = molecular target: T4, rat Unc5D ectodomain (Unc5D^ecto) (rat, UniProt F1LW30 31-382); test: SEC-MALS; proteins mixed (Lphn3^Lec–Olf:FLRT:Unc5 2:1:1) and concentrated; Superdex 200 10/30, 10 mM Tris-HCl pH 7.5, 150 mM NaCl; details: both partners purified
T4 construct: signal peptide in the construct; Unc5D, rat, residues 1-382 (all extracellular domains); The form used in native MS and SEC-MALS

[4] = molecular target: B4; test: native MS; purified proteins mixed (FLRT2^LRR:Unc5D:Lphn3^Lec–Olf 1:1:2), 10–15 μM, 0.2 M ammonium acetate pH 7.5; Q-ToF; tandem MS of the tetramer peak at 150 V collision energy; details: both partners purified
[5] = molecular target: T1, Lphn3^Lec–Olf DDD mutant (D397N+D399T, …); test: as above; details: both partners purified
[6] = molecular target: B5; test: SPR; Unc5D^ecto biotinylated at a C-terminal Avitag and coupled to a streptavidin-coated CM5 chip; FLRT2^LRR or FLRT2^LRR+Lphn3^Lec–Olf (1:2 molar ratio) injected; equilibrium binding, 25 °C, PBS+0.005% polysorbate 20 pH 7.5; apparent Kd, 1:1 and 1:(1:1) models, called indicative only; details: both partners purified
[7] = molecular target: the molecule itself; test: crystal structure; Lphn3^Lec–Olf, FLRT2^LRR and Unc5D^Ig deglycosylated, mixed 1:1:1, SEC; crystals at 18 °C, 0.1 M sodium cacodylate pH 6.5; 6 Å (PDB 5ftu)
[8] = molecular target: B2; test: native MS; purified proteins mixed (FLRT2^LRR:Unc5D:Lphn3^Lec–Olf 1:1:2), 10–15 μM, 0.2 M ammonium acetate pH 7.5; Q-ToF; tandem MS of the tetramer peak at 150 V collision energy; details: both partners purified
[9] = molecular target: the molecule itself; test: as above
[10] = molecular target: T2, FLRT2^LRR+Lphn3^Lec–Olf DDD mutant; test: SPR; Unc5D^ecto biotinylated at a C-terminal Avitag and coupled to a streptavidin-coated CM5 chip; FLRT2^LRR or FLRT2^LRR+Lphn3^Lec–Olf (1:2 molar ratio) injected; equilibrium binding, 25 °C, PBS+0.005% polysorbate 20 pH 7.5; apparent Kd, 1:1 and 1:(1:1) models, called indicative only; details: both partners purified
[11] = molecular target: T3, FLRT2^LRR+Lphn3^Lec–Olf (mixed in a 1:2 …); test: as above; details: both partners purified
[12] = molecular target: B2; test: crystal structure; Lphn3^Lec–Olf, FLRT2^LRR and Unc5D^Ig deglycosylated, mixed 1:1:1, SEC; crystals at 18 °C, 0.1 M sodium cacodylate pH 6.5; 6 Å (PDB 5ftu); details: both partners purified

T4 sequence (F1LW30 31-382): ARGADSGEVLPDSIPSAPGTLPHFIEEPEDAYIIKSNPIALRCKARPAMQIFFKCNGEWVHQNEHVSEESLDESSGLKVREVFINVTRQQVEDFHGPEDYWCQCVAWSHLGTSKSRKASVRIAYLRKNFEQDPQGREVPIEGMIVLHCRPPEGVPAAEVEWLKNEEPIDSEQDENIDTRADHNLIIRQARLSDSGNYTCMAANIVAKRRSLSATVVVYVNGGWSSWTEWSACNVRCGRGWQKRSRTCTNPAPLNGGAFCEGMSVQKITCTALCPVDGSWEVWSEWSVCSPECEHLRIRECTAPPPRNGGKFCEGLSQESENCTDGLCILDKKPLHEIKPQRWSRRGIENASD

Binder: B1
binding result [1]: binds

Binder: B2
binding result [2]: binds
stoichiometry N [3]: 1
binding result [4]: binds
binding result [5]: binds
Kd [6]: 460 nM

Binder: B3
binding result [7]: binds
stoichiometry N [8]: 1 and 2

Binder: B4
binding result [9]: binds

Binder: B5
binding result [10]: binds
Kd [11]: 94 nM

Binder: B6
binding result [12]: binds

From article PMC4838878, “Super-complexes of adhesion GPCRs and neural guidance receptors” (Nature Communications, 2016)
